Assay results published in the DeepSol protein solubility set.

test: soluble on expression in E. coli; label from the status in PepcDB or PDB records

Sequence	soluble on expression in E. coli
RETFNYMLPGAGVRGAAMARTAGRWGERVVSHNATFKLLTDLRIFFFKKLAPLIPGRVSTMRDADLLNRLVADVDAMDHVYLR	not soluble
MGSDKIHHHHHHDDPFYAPVYPEAPPTKIAATGSIYQDSQAASLYSDIRAHKVGDIITIVLKEATQAKKSAGNQIKKGSDMTLDPVYAGGSNLSLGGIPLDLRYKDSMNTKRESDADQSNSLDGSISANIMQVLNNGNLVVRGEKWISINNGDEFIRVTGIVRSQDIKPDNTIDSTRMANARIQYSGTGTFAEAQKVGWLSQFFMSDWWPF	not soluble
PVSQPDAPGHQRKVVSWIDVYTRATCQPREVVVPLTVELMGTVAKQLVPSCVTVQRCGGCCPDDGLECVPTGQHQVRMQILMIRYPSSQLGEMSLEEHSQCECRPKKKDSAVKPDSPRPLCPRCTQHHQRPDPRTCRCRCRRRSFLRCQGRGLELNPDTCRCRKLRR	soluble
MSLRPTIYDVAKAAGVSKSLVSLVLRGSPNVSKESEAAVKTAIKKLNYQPNRAASDLAAKRTQLIAVLIDDYSNPWFIDLIQSLSDVLTPKGYRLSVIDSLTSQAGTDPITSALSMRPDGIIIAQDIPDFTVPDSLPPFVIAGTRITQASTHDSVANDDFRGAEIATKHLIDLGHTHIAHLRVGSGAGLRRFESFEATMRAHGLEPLSNDYLGPAVEHAGYTETLALLKEHPEVTAIFSSNDITAIGALGAARELGLRVPEDLSIIGYDNTPLAQTRLINLTTIDDNSIGVGYNAALLLLSMLDPEAPHPEIMHTLQPSLIERGTCAPREGHHHHHH	soluble
MGSDKIHHHHHHMNDQKNAAQVGLGLRREMLSEFCESVPEAINFFEVAPENWMTLGGKFGRQFRELTEQHTFYCHGLSLSIGSPEPLDLAFVKNIKTFMDLHQIQIYSEHLSYCSGQGHLYDLMPIPFTDAAVKHVAARVKQVEDILERPLILENVSFYAAPGARMSELEFVNAVLQEADCKLLLDVNNIYVNSINHQYDADTFLQAMPTERIAYLHIAGHYKQAEDLLIDTHGAAINDPVWALLQRCYALHGVKPTLLERDFNVPTTAELLLELNQIHAYQAAAPSSHIQNSAHVVKRIA	not soluble
MSLNEITLNVLYNLPGFTKFHQPLADEFMKKNPDVKINFLAPAAGYNEGQQQVLRSAVTGNLPDVYFSGYNLTAELVHTLAPRNQITDLGPFIQAEGGQAFLDKNYSPKMAALGQIDGKQYGLPVNASSPIIYINSDLVTKAGGDPDKMPTTFPELIALAKKIKALDPKFAGMSYDINGWPDDWLWQALVVEQGGKLVDDKTKTVAFDNEIGLNALKMTRQFVTEGGQNLLDWDQSRQQFGAGLTGFIFSTPAHVQTIQGLVGDRFKLKTATFPLDNKEKGGVPTGGNSAVILTQEKAKQDAAWKYLKWITGPEAQNTIVRITGYLPTNKLATGPDFLAPYYVENPNVKTASLQADRSLPWAGYPGGDSVRIWRTQRDIIGTVMRGEVTPEAGLKQIVEQTNALLKEGHHHHHH	soluble
SLKTPGYPDGPIAIYGDNIFLYSEPTAEEAARFDVVINCAREVSNPFEINKATRRPMSIAEPDTAVSTASFMTAWEFPQGDDSAETPTTPKALQFQEPEYIHIPWDHNTDIAPDLMDLCHVVDDRTKAGKRVLIHCQQGASRSASLIIAYGLFQRPELTVNDAYYAAQAKSQWISPNMKLMYSLQDFQKEVSTKRTAQPSNREG	soluble
MLFDHLRDEVMRLDAGITQEVLKLYIAFKAETNFVDVVPQKSRLRLSLNMQFHELVDPKGIAKDVTNVGRWGNGDVEIGFSDLAQLPYIMGLIRQAFEKQMESALV	not soluble
MAHHHHHHMPGVLRGKGPTRVFLPQPCNHVGNLKIVWKVKLQIYAVQTNFSRVYGAPSDAQPHVICGTKRISDVHQDIACCRILLNGVIAPPVRLQNQPLVFLTKETGDGVGITHCVECRHVSQHILRLKKNIAVNDDSPLLGAAVTNEIHTKPASSHSSADTQMIGH	not soluble
MSISQNNFLTMFPVTYTFENGVYSTIINQNTIQTPIPNPIQHHIQNHIQTSIPNTNLLLENVQTDVQKLMVPLIDQQFHIPTSTPLQLAPIPTQIQSQLQPQISQIPIHNQPQIQIQSQVQPQLPTQSQPKPSSKASLDTSSNAFKKYVNPFAPEATVPLPVELEDQYGPYSSSVWKRNERERCRVRNVNDGYERLRKHLPVHFDEKRISKVDTLRLAIRYIKHLDNLLRSELHQYNCKCFNGFQEESEGNILIDISTFNFNSSNNAM	not soluble
MGSDKIHHHHHHMAKAKTQYVCQNCGYISATYLGRCPNCGGWNTLVEETVSSSKSVPRQTAAGSKVKPTRMNDVTITKETRVKTGLDELNRVLGGGVVPGSLVLIGGDPGIGKSTLLLQVSGQLANTGGTVLYVSGEESASQIKMRAGRLGVANSGMYLYPETDMPSIEDVINQMQPDYVVIDSVQTMNVPEMNSAVGSVTQIREVTAELMRIAKSKGVTIFIVGHVTKEGAIAGPKILEHMVDTVLYFEGDMHHTYRILRSVKNRFGSTNEIGIFEMHQDGLQEVANPSEIFLEERLAGATGSAVVVSMEGTRPILVEIQALISPTMYGNAKRTSSGLDHNRVSLIMAVLEKRANLMLQNQDAYLKATGGVKLDEPAIDLAMAVAIASSYRDKEISPTDCFVGEIGLTGEVRRVNRIEERVKEAAKLGFKRIFVPRNNLQGWHAPKDIQVIGVTSIAEALHKVFN	not soluble
MSLQQPLAYRMRPRHLDEVVGQQHLVGPGKIIRRMVEAKMLSSMILYGPPGTGKTSIASAIAGSTNYAFRMLNAATDTKKDLQIVAEEAKMSGTVILLLDEIHRLDKTKQDFLLPHLENGRIIMIGATTENPYITINPAIRSRTQIFEVKPLTETDIQQAIQEALTDSTRGLGDYPVHLEEKALQHLTRATNGDLRSALNGLELAVKSTPKNEQGEIKITLPIIEECVQRKALTHVKDGDAHYDVISAFQKSIRGSDVDAALHYLGRLVEAGDLPIICRRLMVIAYEDIGLGNPAAAARTVTAVQAAEKLGFPEARIPLASVVIDLCLSPKSNSAVTAIDAALADIRQGSVGDVPDHLRDAHYAGAKELNRGIGYQYPHNFENGWVNQQYLPDKLKEARYYEPIDIGKYEQALHQQLKRIQEWKEGHHHHHH	soluble
AYESIQVTSAQKHVLHVQLNRPEKRNAMNRAFWRELVECFQKISKDSDCRAVVVSGAGKMFTSGIDLMDMASDILQPPGDDVARIAWYLRDLISRYQKTFTVIEKCPKPVIAAIHGGCIGGGVDLISACDIRYCTQDAFFQVKEVDVGLAADVGTLQRLPKVIGNRSLVNELTFTARKMMADEALDSGLVSRVFPDKDVMLNAAFALAADISSKSPVAVQGSKINLIYSRDHSVDESLDYMATWNMSMLQTQDIIKSVQAAMEKKDSKSITFSKL	soluble
MGHHHHHHSHMTIYDQHMHTLYSFDSEAQLRDYLTQTKAPVVTTEHLEFDNPDDGGRDNLPDYARMKATQAALAEKFPNEFLLGIEAGYFAPADARFRQYLDNHDFDLTLLSFHHDGHYDYLDEQLITMPAKQQLEDYFERMLAGLKRFHDADVLAHFDYALRRFDITPDQLEAWGKPLLDQIFTIAVENDLALELNTKSMYRWGNAPLYDQAIAWYQAAGGHLFTIGSDAHEGPQYEANFADALAMLKRHGVKEIATYRQHQRTMVPIEPPVIDADNAY	soluble
MNLDQELAEIRASSSDHTNYFYSSERREHMFDKVLTPSDVGKLNRLVIPKQHAENFFPLEDNQNGTVLDFQDKNGKMWRFRYSYWNSSQSYVMTKGWSRFVKEKKLFAGDTVSFYRGYIPDDNAQPERRRKIMFIDWRPRAEINFVHNINNHNFVFGSPTYPTARFYPVTPEYSMPYRSFPPFYQNQFQEREYLGYGYGRVVNGNGVRYYAGSPLDQHHQWNLGRSEPLVYDSVPVFPAGRVPPSAPPQPSTTKKLRLFGVDVEESSSSGDTRGEMGVAGYSSSSPVVIRDDDQSFWRSPRGEMASSSSAMQLSDDEEYKRKGKSLEL	soluble
MSLQIAANKAVSIDYTLTNDAGDVIDSSAGGAPLVYLHGAGNIIVGLEKALEGKNVGDELSVAIEPEDAYGEYSAELVATLTREMFEGVDELEVGMQFHASAPDGGMQIVTIRDIDGDDVTVDGNHPLAGQRLNFKVKVVDVREANAEEIAHGHIHGEGGHHHEGGSHHHHHH	soluble
MGSDKIHHHHHHMTRAELYAVLDRFLAALDARDPTALDWAPGAHHSENNVMLEIGDGVWGTIDRLGDYRLRFADTRTRQVGYFGTVIEPIEESAFTLRLALDEAGRIAECEMLIVRQSDSGIKFENCRYWDKPILHREPEAPVSRQEMVRLSNGYFDTLQRNDGTIHTRFHPDCNRVENGVQTTRNPDFAKIVPVSALGCEEQFRMGNYRYDDDLRARRFPLVDEERGLVLAFGFIDHSGRLREFQLTDGRTVKSPVLRPHSFYISELFKIDHGMIEQIEANFITVPYRMPSPWDLL	not soluble
QVKDFVIEPPIKNNLHIYKTFGVFGGKEYSANSMYLVTKKGVVLFDVPWEKVQYQSLMDTIKKRHNLPVVAVFATHSHDDRAGDLSFFNNKGIKTYATAKTNEFLKKDGKATSTEIIKTGKPYRIGGEEFVVDFLGEGHTADNVVVWFPKYNVLDGGCLVKSNSATDLGYIKEANVEQWPKTINKLKAKYSKATLIIPGHDEWKGGGHVEHTLELLNKK	soluble
MGSDKIHHHHHHMLRPHHSDNEQITLRSLLQSYRDQTTSNVVWGKIFEDFVTKYLMHDPLHYGRYEKVESYYEWAKERKDWNKNDIGIDLVAKLRHQESYVAIQCKFYKADHQISKKDIDSFIAESGKKIFKYRLLVDSTEVELSDNVNAMIKGQAIPIYRIDLRHMENSRIDWQTYATKKEVVLKSIKKPLPHQEPTMRPRAWIKAFSALAVASFK	not soluble
MEQIHGGDSNSGGGGGGSSRNDEISVTRASRFDALPEDCISKVISHTSPRDACVVASVSKSVKSAAQSDLVWEMFLPSEYSSLVLQSANHLSKKEIFLSLADNSVLVENGKKSFWVEKASGKKCYMLSAMELTIIWGDSPAYWKWITVPESKFEKVAELRNVCWFEVRGKISCGMLSKGTHYSVYVVFKTANGRSYGFDLVPVEAGVGFVGKVATKKSVYFESGNADSRSATSHYSGISEEEEEVEGERERGMNVVGPKERVDGWSEVELGKFYINNGGCGDDGSDEIEISIMETQNGNWKSGLIIQGIEIRPERSN	soluble
MKERFMSKFAIVFPGQGSQAVGMLADLAEQYAVVKQTFAEASEVLGYDLWALVQDGPVEDLNQTFRTQPALLAASVAIWRVWQQLGLEQPAVLAGHSLGEYSALVCAGVIDFKQAIKLVELRGQLMQQAVPAGTGAMYAIIGLEDEAIAKACADAAQGEVVSPVNFNSPGQVVIAGQKDAVERAGVLCKEAGAKRALPLPVSVPSHCALMKPAADELAKTLAELEFNAPQIPVINNVDVVAETDPVKIKDALIRQLYSPVRWTECVEQMSAQGVEKLIEMGPGKVLTGLTKRIVKTLEGVAVNDVASLDAVK	soluble
MAHHHHHHMVRRLEGNPVPTIGIIFMLHAHRTAHLKYYQSMSLFAIENVDVVWGAAGYSILKQTQGAWMALYDEAYVSENKVMPFGYLVQNGVLMPTSDPCNAANTLAGDGSATAKKWGGTSQQKHRYAYEADVVPRRSCIKARTRSADNSGRRVTFCSGDTEFGVF	not soluble
GHMAKTDRSQPSVLARIAAFRTGLSAEASAADYLERQGYRILARRFKTRCGEIDLVAQRDALVAFVEVKARGNVDDAAYAVTPRQQSRIVAAAEAWLSRHPEHAMSELRFDAILIAPNTAPRHLPGAFDATPGS	soluble
